The text below walks through data of article PMC7939443.

Data set [1] has as its target human poly(C)-binding protein 2 (PCBP2), full length, wild type (human) (UniProt Q15366). Put plainly: AUC.
The target is the same in data set [2]. Put plainly: SAXS.
The target of data set [3] is T1, nsp1β WT;PCBP2 WT (PRRSV isolate SD01-08 (Betaarterivirus …, UniProt Q04561;Q15366 181-385;1-365, |)). Put plainly: EMSA; large molar excess of both proteins. As to conditions: protein: recombinant;recombinant; tags: GST tag removed with HRV 3C protease;N-terminal polyHis; copies: 1;1; single strand.
Data set [4] concerns the target T1, nsp1β WT;PCBP2 WT. Put plainly: EMSA. Conditions: protein: recombinant;recombinant; tags: GST tag removed with HRV 3C protease;N-terminal polyHis; copies: 1;1; single strand. In general terms: Mobility shift assays separate free from complexed probe on a gel.
Data set [5] addresses T2, PCBP2 WT (Homo sapiens, UniProt Q15366 1-365). Put plainly: EMSA; no appreciable binding at 28-fold molar excess. As to conditions: protein: recombinant; tags: N-terminal polyHis; single strand.
The target of the next data set is T3, nsp1β WT (PRRSV isolate SD01-08 (Betaarterivirus …, UniProt Q04561 181-385)).
T3 sequence: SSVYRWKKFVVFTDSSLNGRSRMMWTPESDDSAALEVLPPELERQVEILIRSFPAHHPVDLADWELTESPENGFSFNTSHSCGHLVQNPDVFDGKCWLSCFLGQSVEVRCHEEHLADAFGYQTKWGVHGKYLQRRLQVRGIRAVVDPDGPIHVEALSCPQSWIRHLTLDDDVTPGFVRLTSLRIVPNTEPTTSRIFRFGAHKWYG
Put plainly: EMSA; up to 20-fold molar excess. As to conditions: protein: recombinant; tags: GST tag removed with HRV 3C protease; single strand.

In data set [6] the target is T2, PCBP2 WT. Put plainly: EMSA; seen from 8-fold, strong at 20-fold molar excess. As to conditions: protein: recombinant; tags: N-terminal polyHis; single strand.
The target in data set [7] is T1, nsp1β WT;PCBP2 WT. Put plainly: EMSA; supershift relative to PCBP2 alone; complex also purified by SEC. Conditions: protein: recombinant;recombinant; tags: GST tag removed with HRV 3C protease;N-terminal polyHis; copies: 1;1; single strand.

By stoichiometry N is commonly meant a count of units in the complex or per binding partner.

T1 sequence (Q15366 whole entry, one chain of several): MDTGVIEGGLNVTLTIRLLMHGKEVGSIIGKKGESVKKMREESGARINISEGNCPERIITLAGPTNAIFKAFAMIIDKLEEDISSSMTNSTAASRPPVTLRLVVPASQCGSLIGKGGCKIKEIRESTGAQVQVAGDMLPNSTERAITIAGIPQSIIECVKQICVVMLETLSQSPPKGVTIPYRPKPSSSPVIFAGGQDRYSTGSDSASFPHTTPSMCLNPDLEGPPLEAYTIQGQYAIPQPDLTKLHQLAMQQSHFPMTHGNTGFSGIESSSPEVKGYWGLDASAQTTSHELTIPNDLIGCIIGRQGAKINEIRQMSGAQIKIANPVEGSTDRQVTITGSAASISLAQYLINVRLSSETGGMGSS
T2 sequence (Q15366 whole entry): as the sequence (Q15366 whole entry, one chain of several) above
Sequence of human poly(C)-binding protein 2 (PCBP2), full length, wild type (human) (Q15366 whole entry): as the sequence (Q15366 whole entry, one chain of several) above
Sequence of PRRSV nonstructural protein 1β (nsp1β), isolate SD01-08, wild type (natural protein) (A0MD28 181-385 limits assumed): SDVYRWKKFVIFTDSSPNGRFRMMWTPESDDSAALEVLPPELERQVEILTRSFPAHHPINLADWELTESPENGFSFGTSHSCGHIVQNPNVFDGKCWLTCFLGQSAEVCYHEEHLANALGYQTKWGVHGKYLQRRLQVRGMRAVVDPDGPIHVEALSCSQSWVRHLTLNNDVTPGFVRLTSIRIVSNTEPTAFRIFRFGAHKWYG

As for “PRRSV nonstructural protein 1β (nsp1β), isolate SD01-08, wild type (natural protein)”, the stoichiometry N in data set [1] and in data set [2] was 1 throughout.

Turning to GGGTTTTTGAAGTTTACTGAAATATGGCAGCTTT (ssDNA) [34-nt CC2 ssDNA], the binding result in the data set with nsp1β WT;PCBP2 WT [3] is reported as “no binding”.

Regarding GGGUUUUUGAAGUUUACUCCCAUCUCCCAGCUUU (ssRNA) [34-nt PRRSV ssRNA], the values for the binding result with nsp1β WT;PCBP2 WT [4] and with PCBP2 WT [5] were “binds” and “no binding”, respectively.

In the case of GGGTTTTTGAAGTTTACTCCCATCTCCCAGCTTT (ssDNA) [34-nt PRRSV ssDNA], the binding result is reported as “no binding” with nsp1β WT, “binds” in the data set with PCBP2 WT [6] and “binds” with nsp1β WT;PCBP2 WT [7].
